The results in this text go back to patent US20160200782A1 (MOERAE MATRIX, published 2016).

Assay in all cases: cell-based or functional assay
Assay [1] has as its target Ab1(Y253F)(h) (human, UniProt P00519 27-1130, limits assumed).
The target in assay [2] is HIPK1(h) (human, UniProt Q86Z02 158-555, limits assumed).
The target of assay [3] is JNK3(h) (human, UniProt P53779 1-464, limits assumed).
The target of assay [4] is MEK1(h) (human, UniProt Q02750 1-393, limits assumed).
Assay [5] concerns the target MELK(h) (human, UniProt Q14680 1-340, limits assumed).
Assay [6] concerns the target T1, Mer(h) (human, UniProt Q12866 578-872, limits assumed).
T1 sequence (looked up): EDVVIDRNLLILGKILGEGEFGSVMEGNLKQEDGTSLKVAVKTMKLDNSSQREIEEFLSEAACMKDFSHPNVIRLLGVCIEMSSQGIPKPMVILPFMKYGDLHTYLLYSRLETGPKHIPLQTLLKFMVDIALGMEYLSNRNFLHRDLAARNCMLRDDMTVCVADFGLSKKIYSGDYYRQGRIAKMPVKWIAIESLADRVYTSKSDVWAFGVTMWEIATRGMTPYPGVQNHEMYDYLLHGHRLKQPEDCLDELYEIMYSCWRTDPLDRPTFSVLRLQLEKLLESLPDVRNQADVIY

The target in assay [7] is Met(Y1248D)(h) (human, UniProt P08581-2 974-1408, limits assumed).
Assay [8] addresses AMPKa1(h) (human, UniProt Q13131 1-559, limits assumed).
In assay [9] the target is PDGFRα(V561D)(h) (human, UniProt P16234 550-1089, limits assumed).
Assay [10] addresses PKBα(h) (human, UniProt P31749 1-480, limits assumed).
The target of assay [11] is PKCα(h) (human, UniProt P17252 1-672).
Assay [12] concerns the target T2, Ron(h) (human, UniProt Q04912 983-1400, limits assumed).
T2 sequence (looked up): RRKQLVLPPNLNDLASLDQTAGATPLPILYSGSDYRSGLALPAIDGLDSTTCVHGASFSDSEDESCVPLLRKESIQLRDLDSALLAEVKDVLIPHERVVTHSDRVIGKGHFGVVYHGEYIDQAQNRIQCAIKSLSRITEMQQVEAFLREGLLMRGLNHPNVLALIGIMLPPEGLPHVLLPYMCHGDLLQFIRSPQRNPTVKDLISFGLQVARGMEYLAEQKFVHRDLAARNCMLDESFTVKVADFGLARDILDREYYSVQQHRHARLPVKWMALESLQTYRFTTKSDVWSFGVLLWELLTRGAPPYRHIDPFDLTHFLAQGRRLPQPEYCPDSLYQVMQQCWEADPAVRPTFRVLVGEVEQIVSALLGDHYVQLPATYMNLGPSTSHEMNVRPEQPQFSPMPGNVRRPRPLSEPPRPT

Assay [13] addresses SAPK2a(T106M)(h) (human, UniProt Q16539 1-360).
Assay [14] concerns the target Snk(h) (human, UniProt Q9NYY3 1-685, limits assumed).
The target of assay [15] is T3, Txk(h) (human, UniProt P42681 1-527, limits assumed).
T3 sequence (looked up): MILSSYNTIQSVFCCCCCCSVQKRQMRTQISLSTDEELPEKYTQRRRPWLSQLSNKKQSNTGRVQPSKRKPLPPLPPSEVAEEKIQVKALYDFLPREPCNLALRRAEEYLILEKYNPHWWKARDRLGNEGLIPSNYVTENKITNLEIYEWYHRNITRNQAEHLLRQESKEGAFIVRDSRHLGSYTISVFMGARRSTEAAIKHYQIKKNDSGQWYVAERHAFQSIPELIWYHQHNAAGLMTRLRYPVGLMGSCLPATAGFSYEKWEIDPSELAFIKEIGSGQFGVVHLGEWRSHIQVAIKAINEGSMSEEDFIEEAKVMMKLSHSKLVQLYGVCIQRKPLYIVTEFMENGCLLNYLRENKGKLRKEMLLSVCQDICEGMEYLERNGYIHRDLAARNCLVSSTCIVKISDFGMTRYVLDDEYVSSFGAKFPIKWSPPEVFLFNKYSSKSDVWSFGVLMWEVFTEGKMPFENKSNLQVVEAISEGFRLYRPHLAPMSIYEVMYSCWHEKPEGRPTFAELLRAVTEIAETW

For assay [16], the target named is CDK7/cyclinH/MAT1(h) (human, UniProt P50613 1-346; P51946 1-323; P51948 1-309).
Assay [17] concerns the target EGFR(L861Q)(h) (human, UniProt P00533 696-1210, limits assumed).
Assay [18] concerns the target T4, EphB2(h) (human, UniProt P29323 565-986, limits assumed).
T4 sequence (looked up): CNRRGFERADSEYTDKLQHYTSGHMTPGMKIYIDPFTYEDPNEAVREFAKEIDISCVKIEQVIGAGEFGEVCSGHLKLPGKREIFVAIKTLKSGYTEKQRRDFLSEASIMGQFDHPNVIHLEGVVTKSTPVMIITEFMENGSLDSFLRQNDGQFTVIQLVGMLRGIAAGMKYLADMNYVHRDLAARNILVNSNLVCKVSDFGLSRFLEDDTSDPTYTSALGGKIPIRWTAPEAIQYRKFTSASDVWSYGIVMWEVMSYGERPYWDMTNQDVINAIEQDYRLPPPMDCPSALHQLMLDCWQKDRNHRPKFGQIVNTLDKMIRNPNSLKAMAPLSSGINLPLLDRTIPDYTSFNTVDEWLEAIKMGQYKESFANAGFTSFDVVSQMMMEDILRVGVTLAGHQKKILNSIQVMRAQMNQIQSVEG

Assay [19] addresses FAK(h) (human, UniProt Q05397 1-1052, limits assumed).
Assay [20] concerns the target FGFR1(V561M)(h) (human, UniProt P11362 456-765, limits assumed).
Note: test concentration or dose not given here.

B1: MMI-0400 (peptide)
peptide: KAFAKLAARLYRKALARQLGVAA
B1: the “% activity” value in assay [1] came out at 78%; in assay [2] it was 91%; in assay [3], 70%; in assay [4], 77%; in assay [5], 17%; in assay [6], 50%. Moreover, the “% activity” value in assay [7] came to 31%; in assay [8] it was 87%; in assay [9], 100%; in assay [10] it was 67%; in [11] it was 86%; in assay [12] it was 79%. In addition, the “% activity” value came to 99% in [13]; 131% in assay [14]; 37% in assay [15]; 47% in [16]; 22% in assay [17]; 22% in assay [18]. The “% activity” value in [19] came to 96%; in [20], 74%.

B2: MMI-0300 (peptide)
peptide: FAKLAARLYRKALARQLGVAA
As for B2, the “% activity” value in assay [1] came to 86%; in assay [2], 74%; in assay [3] it was 89%; in [4], 77%; in assay [5], 16%; in assay [6], 52%. For the same molecule, the “% activity” value in [7] was 102%; in assay [8] it was 71%; in assay [9], 82%; in assay [10] it was 57%; in assay [11], 89%; in assay [12], 93%. Further, the “% activity” value in assay [13] came out at 97%; in [14], 114%; in assay [15], 48%; in [16], 65%; in assay [17], 25%; in [18] it was 18%. Besides, the “% activity” value in assay [19] came to 111%; in [20], 74%.
